From PMC11626796 come the findings set out here.

As a reminder, the Kd is the equilibrium constant for the complex coming apart. Higher therefore signals lower affinity.

In experiment [1] the target is Versican treated with chondroitinase ABC (core protein) (bovine) (UniProt P81282). The experiment can be described thus: ELISA; solid-phase binding assay: proteoglycan or versican domain coated on a 96-well plate (0.25 ug/ml; 0.05-1 ug/ml in Fig. 2A) at 4 C overnight, blocked with 3% BSA in TTBS or casein; rat tail type I collagen 0.1-5 ug/ml in 1% BSA/PBS overnight at RT; detected with biotin-conjugated anti-collagen I antibody, streptavidin-HRP and TMB; Kd from Scatchard plot. On the technique in general: An ELISA detects its analyte on a solid surface through an enzyme-linked reagent.

Experiment [2] deals with Native versican isolated from bovine liver (bovine) (UniProt P81282). Described as above.
Chain of Native versican isolated from bovine liver (bovine) (P81282 21-3381): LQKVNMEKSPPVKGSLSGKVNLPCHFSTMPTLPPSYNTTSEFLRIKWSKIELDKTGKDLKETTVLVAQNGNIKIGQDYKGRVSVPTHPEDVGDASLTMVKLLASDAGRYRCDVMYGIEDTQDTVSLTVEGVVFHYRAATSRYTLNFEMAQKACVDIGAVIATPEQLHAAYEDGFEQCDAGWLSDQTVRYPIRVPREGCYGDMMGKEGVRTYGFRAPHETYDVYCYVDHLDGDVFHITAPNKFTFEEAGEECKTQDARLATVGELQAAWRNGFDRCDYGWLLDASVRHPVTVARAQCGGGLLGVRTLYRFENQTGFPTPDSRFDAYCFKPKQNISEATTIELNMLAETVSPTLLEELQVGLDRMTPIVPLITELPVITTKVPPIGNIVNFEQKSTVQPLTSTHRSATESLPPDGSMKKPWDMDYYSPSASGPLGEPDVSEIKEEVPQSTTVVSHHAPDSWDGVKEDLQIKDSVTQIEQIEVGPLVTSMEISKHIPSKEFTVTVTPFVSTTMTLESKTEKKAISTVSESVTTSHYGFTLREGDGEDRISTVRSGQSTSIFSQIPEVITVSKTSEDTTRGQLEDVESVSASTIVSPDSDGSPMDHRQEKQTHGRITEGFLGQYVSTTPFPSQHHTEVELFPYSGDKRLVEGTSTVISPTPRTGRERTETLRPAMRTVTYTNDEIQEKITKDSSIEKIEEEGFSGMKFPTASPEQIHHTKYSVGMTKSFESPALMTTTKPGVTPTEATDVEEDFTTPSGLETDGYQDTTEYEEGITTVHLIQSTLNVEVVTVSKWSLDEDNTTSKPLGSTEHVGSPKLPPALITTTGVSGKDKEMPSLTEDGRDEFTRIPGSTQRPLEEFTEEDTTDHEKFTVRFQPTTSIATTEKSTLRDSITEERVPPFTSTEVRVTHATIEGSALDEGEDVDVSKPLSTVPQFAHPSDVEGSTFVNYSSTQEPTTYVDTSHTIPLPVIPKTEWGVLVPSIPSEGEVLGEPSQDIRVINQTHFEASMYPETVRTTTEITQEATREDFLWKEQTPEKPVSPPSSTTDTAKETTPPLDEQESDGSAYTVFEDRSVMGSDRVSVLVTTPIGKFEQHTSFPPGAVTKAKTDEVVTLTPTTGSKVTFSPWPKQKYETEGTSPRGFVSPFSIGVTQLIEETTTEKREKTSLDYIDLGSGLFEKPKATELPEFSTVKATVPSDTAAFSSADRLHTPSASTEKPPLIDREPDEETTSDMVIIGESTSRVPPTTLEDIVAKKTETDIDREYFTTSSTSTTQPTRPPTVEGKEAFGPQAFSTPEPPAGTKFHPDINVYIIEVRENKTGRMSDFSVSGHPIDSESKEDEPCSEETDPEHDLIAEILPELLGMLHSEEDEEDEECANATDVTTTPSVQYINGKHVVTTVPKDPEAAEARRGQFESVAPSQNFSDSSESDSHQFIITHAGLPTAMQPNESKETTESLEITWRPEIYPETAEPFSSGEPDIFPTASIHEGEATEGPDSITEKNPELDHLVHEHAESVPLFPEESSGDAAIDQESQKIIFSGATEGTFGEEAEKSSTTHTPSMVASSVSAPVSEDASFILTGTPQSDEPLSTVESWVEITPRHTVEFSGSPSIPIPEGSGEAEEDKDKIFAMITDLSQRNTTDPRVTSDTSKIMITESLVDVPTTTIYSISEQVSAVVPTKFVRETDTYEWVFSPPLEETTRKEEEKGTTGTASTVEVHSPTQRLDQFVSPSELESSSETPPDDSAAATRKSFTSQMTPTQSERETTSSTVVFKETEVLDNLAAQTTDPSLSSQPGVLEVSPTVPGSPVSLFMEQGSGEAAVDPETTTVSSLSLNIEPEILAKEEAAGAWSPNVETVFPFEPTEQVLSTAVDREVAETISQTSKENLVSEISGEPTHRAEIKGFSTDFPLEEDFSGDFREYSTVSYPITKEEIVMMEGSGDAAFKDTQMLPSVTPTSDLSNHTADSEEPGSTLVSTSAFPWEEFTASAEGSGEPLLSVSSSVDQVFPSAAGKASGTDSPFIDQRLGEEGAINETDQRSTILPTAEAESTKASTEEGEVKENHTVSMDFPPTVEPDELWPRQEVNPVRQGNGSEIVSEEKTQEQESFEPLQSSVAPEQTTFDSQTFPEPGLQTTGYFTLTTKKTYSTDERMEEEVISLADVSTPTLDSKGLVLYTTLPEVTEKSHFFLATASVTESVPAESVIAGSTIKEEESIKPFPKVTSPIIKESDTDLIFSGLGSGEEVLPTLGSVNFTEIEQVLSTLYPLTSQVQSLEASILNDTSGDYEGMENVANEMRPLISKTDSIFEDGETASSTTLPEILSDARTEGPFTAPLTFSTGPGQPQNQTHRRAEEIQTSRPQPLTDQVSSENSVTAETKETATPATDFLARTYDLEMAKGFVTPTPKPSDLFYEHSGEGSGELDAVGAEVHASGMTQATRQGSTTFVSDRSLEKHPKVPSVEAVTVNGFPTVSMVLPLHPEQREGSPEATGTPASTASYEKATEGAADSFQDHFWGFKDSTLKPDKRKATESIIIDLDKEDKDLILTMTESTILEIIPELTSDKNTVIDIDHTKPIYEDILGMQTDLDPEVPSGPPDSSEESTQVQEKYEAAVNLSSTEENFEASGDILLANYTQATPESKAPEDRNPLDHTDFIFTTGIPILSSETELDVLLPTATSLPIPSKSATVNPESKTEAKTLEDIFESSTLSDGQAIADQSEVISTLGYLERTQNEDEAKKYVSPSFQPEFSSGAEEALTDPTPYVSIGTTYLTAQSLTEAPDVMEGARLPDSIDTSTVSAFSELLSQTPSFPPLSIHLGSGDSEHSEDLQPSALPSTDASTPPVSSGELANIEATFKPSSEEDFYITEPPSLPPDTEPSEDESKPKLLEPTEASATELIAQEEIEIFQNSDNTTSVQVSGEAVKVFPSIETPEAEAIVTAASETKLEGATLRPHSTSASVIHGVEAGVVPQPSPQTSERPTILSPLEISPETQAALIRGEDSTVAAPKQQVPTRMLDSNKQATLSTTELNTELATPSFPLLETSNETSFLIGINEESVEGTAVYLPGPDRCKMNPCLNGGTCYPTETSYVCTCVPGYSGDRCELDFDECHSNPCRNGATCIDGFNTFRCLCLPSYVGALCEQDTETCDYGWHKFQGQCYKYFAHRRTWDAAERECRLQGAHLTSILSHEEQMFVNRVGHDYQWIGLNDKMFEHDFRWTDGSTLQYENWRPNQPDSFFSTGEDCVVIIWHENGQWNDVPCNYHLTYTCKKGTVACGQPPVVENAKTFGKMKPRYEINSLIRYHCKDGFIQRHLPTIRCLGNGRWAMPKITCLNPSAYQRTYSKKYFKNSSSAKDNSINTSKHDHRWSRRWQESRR

Chain of Versican treated with chondroitinase ABC (core protein) (bovine) (P81282 21-3381): as above

With “Rat tail type I telo-collagen, P02454 152-1207; P02466 86-1125 (complex; GAG side chains removed with chondroitinase ABC)”, in experiment [1], the equilibrium dissociation constant (Kd) is 2.2 nM.

Substance “Rat tail type I telo-collagen, P02454 152-1207; P02466 86-1125 (complex; chondroitin sulfate GAG side chains)” came in with a Kd in experiment [2] of 1.3 nM.
